# Experimental data reported in patent publication US12269859B2, “Synthetic immune receptors and methods of use thereof” (Angeles Therapeutics, Inc., priority 2016, dated 2025).
# Tested on: target antigen-expressing cell line
# Experiment: Jurkat NFAT-GFP assay, coculture with target cell lines expressing the respective target antigen (summary Table 10A)
# Type: cell-based, human
# Parameters: key: The signs +/−, +, 2+ etc. after the name of the cell lines indicate the relative degree of positivity on the Jurkat-NFAT-GFP assay as measured by the % GFP positive cells; +: relative degree of positivity on the Jurkat-NFAT-GFP assay as measured by the % GFP positive cells; 2+: relative degree of positivity on the Jurkat-NFAT-GFP assay as measured by the % GFP positive cells
# Details: relative % GFP positive cells; for NFAT-GFP ASSAY Positive Cell lines: HL60: SIR-expressing Jurkat-NFAT-GFP cells cocultured with HL60; for NFAT-GFP ASSAY Positive Cell lines: U266: SIR-expressing Jurkat-NFAT-GFP cells cocultured with U266
# Method in brief: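 Stable SIR expression in Jurkat-NFAT-GFP cells by lentiviral transfer and puromycin selection; coculture with target cells (E:T approximately 1:2) for 4 to 18 hours; flow cytometric measurement of NFAT-driven GFP; scoring as positive when % GFP-positive cells exceeds that of parental reporter cells.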
Molecule,NFAT-GFP ASSAY Positive Cell lines: HL60,NFAT-GFP ASSAY Positive Cell lines: U266,also measured
"090116-G02 (protein, Synthetic Immune Receptor (SIR)) MALPVTALLLPLALLLHAARPLEGKPIPNPLLGLDSTGSGEDLKNVFPPEVAVFEPSKAEIAHTQKATLVCLATGFYPDHVELSWWVNGKEVHSGVCTDPQPLKEQPALNDSRYCLSSRLRVSATFWQNPRNHFRCQVQFYGLSENDEWTQDRAKPVTQIVSAEAWGRADCGITSASYHQGVLSATILYEILLGKATLYAVLVSALVLMAMVKRKDSRGRAKRSGSGATNFSLLKQAGDVEENPGPTSTMALPVTALLLPLALLLHAARPDIVMTQTPLTLSVTIGQPASISCKSSQSLLDSDGKTYLNWLLQRPGQSPERLIYLVSKLDSGVPDRFTGSGSGTDFTLKISRVEAEDLGVYCCWQGTHFPYTFGGGTKVEIKGGGGGSGGGGSGGGGSQVQLQQPGAELVRPGASVKLSCKASGYTFTSYWMNWVKQRPGQGLEWIGMIDPSDSETHYNHIFKDKATLTVDKSSSTAYLQLSSLTSEDSAVYYCARNLYLWGQGTSVTVSSTREQKLISEEDGSGIQNPDPAVYQLRDSKSSDKSVCLFTDFDSQTNVSQSKDSDVYITDKCVLDMRSMDFKSNSAVAWSNKSDFACANAFNNSIIPEDTFFPSSDVPCDVKLVEKSFETDTNLNFQNLSVIGFRILLLKVAGFNLLMTLRLWSSRAKRSGSGVKQTLNFDLLKLAGDVESNPGPSRGHMTEYKPTVRLATRDDVPRAVRTLAAAFADYPATRHTVDPDRHIERVTELQELFLTRVGLDIGKVWVADDGAAVAVWTTPESVEAGAVFAEIGPRMAELSGSRLAAQQQMEGLLAPHRPKEPAWFLATVGVSPDHQGKGLGSAVVLPGVEAAERAGVPAFLETSAPRNLPFYERLGFTVTADVEVPEGPRTWCMTRKPGA",,,NFAT-GFP ASSAY Positive Cell lines: RAJI (SIR-expressing Jurkat-NFAT-GFP cells cocultured with RAJI): RAJI (+)
060717-T02 (protein) MALPVTALLLPLALLLHAARPDIQMTQSPSSLSASVGDRVTINCKASQDINSYLSWFQQKPGKAPKTLIYRANRLVDGVPSRFSGSGSGQDYTLTISSLQPEDFATYYCLQYDEFPLTFGGGTKVEIKLEIQNPDPAVYQLRDSKSSDKSVCLFTDFDSQTNVSQSKDSDVYITDKCVLDMRSMDFKSNSAVAWSNKSDFACANAFNNSIIPEDTFFPSSDVPCDVKLVEKSFETDTNLNFQNLSVIGFRILLLKVAGFNLLMTLRLWSSRAKRSGSGVKQTLNFDLLKLAGDVESNPGPTSMDWIWRILFLVGAATGAHSFEQVQLVQSGAEVKKPGASVKVSCKASGYTFTNYDINWVRQAPGQGLEWIGWIYPGDGSTKYNEKFKAKATLTADTSTSTAYMELRSLRSDDTAVYYCASGYEDAMDYWGQGTTVTVSSTREDLKNVFPPEVAVFEPSKAEIAHTQKATLVCLATGFYPDHVELSWWVNGKEVHSGVCTDPQPLKEQPALNDSRYCLSSRLRVSATFWQNPRNHFRCQVQFYGLSENDEWTQDRAKPVTQIVSAEAWGRADCGITSASYHQGVLSATILYEILLGKATLYAVLVSALVLMAMVKRKDSRGRAKRSGSGATNFSLLKQAGDVEENPGPSRGHMTEYKPTVRLATRDDVPRAVRTLAAAFADYPATRHTVDPDRHIERVTELQELFLTRVGLDIGKVWVADDGAAVAVWTTPESVEAGAVFAEIGPRMAELSGSRLAAQQQMEGLLAPHRPKEPAWFLATVGVSPDHQGKGLGSAVVLPGVEAAERAGVPAFLETSAPRNLPFYERLGFTVTADVEVPEGPRTWCMTRKPGA,HL60 (2+),,
031517-S02 (protein) MALPVTALLLPLALLLHAARPLEGKPIPNPLLGLDSTGSGEDLKNVFPPEVAVFEPSKAEIAHTQKATLVCLATGFYPDHVELSWWVNGKEVHSGVCTDPQPLKEQPALNDSRYCLSSRLRVSATFWQNPRNHFRCQVQFYGLSENDEWTQDRAKPVTQIVSAEAWGRADCGITSASYHQGVLSATILYEILLGKATLYAVLVSALVLMAMVKRKDSRGRAKRSGSGATNFSLLKQAGDVEENPGPTSMALPVTALLLPLALLLHAARPDIVLTQSPASLAVSLGERATINCRASESVSVIGAHLIHWYQQKPGQPPKLLIYLASNLETGVPARFSGSGSGTDFTLTISSLQAEDAAIYYCLQSRIFPRTFGQGTKLEIKGGGGSGGGGSGGGGSQVQLVQSGSELKKPGESVKISCKASGYTFTDYSINWVKQAPGQGLKWMGWINTETREPAYAYDFRGRFVFSLDTSASTAYLQISSLKAEDTAVYFCALDYSYAMDYWGQGTLVTVSSTREQKLISEEDGSGIQNPDPAVYQLRDSKSSDKSVCLFTDFDSQTNVSQSKDSDVYITDKCVLDMRSMDFKSNSAVAWSNKSDFACANAFNNSIIPEDTFFPSSDVPCDVKLVEKSFETDTNLNFQNLSVIGFRILLLKVAGFNLLMTLRLWSSRAKRSGSGVKQTLNFDLLKLAGDVESNPGPSRGHMTEYKPTVRLATRDDVPRAVRTLAAAFADYPATRHTVDPDRHIERVTELQELFLTRVGLDIGKVWVADDGAAVAVWTTPESVEAGAVFAEIGPRMAELSGSRLAAQQQMEGLLAPHRPKEPAWFLATVGVSPDHQGKGLGSAVVLPGVEAAERAGVPAFLETSAPRNLPFYERLGFTVTADVEVPEGPRTWCMTRKPGA,,(+/−),"NFAT-GFP ASSAY Positive Cell lines: L363 (SIR-expressing Jurkat-NFAT-GFP cells cocultured with L363): L363 (+/−), U266"
012517-I12 (protein) MALPVTALLLPLALLLHAARPLEGKPIPNPLLGLDSTGSGEDLKNVFPPEVAVFEPSKAEIAHTQKATLVCLATGFYPDHVELSWWVNGKEVHSGVCTDPQPLKEQPALNDSRYCLSSRLRVSATFWQNPRNHFRCQVQFYGLSENDEWTQDRAKPVTQIVSAEAWGRADCGITSASYHQGVLSATILYEILLGKATLYAVLVSALVLMAMVKRKDSRGRAKRSGSGATNFSLLKQAGDVEENPGPTSMALPVTALLLPLALLLHAARPDIQLTQSPSSLSASVGDRVTITCRASQGISSVLAWYQQKPGKAPKLLIYDASSLESGVPSRFSGSGSGTDFTLTISSLQPEDFATYYCQQFNSSITFGQGTKLEIKRTVAAGGGGSGGGGSGGGGSQVQLVQSGAEVKKPGSSVKVSCKASGGTFSDYAISWVRQAPGQGLEWMGRIIPILGVANYAQKFQGRVTITADKSTRTAYMELSSLRSEDTAVYYCARNWADAFDIWGQGTMVTVSSASTREQKLISEEDGSGIQNPDPAVYQLRDSKSSDKSVCLFTDFDSQTNVSQSKDSDVYITDKCVLDMRSMDFKSNSAVAWSNKSDFACANAFNNSIIPEDTFFPSSDVPCDVKLVEKSFETDTNLNFQNLSVIGFRILLLKVAGFNLLMTLRLWSSRAKRSGSGVKQTLNFDLLKLAGDVESNPGPSRGHMTEYKPTVRLATRDDVPRAVRTLAAAFADYPATRHTVDPDRHIERVTELQELFLTRVGLDIGKVWVADDGAAVAVWTTPESVEAGAVFAEIGPRMAELSGSRLAAQQQMEGLLAPHRPKEPAWFLATVGVSPDHQGKGLGSAVVLPGVEAAERAGVPAFLETSAPRNLPFYERLGFTVTADVEVPEGPRTWCMTRKPGA,HL60 (+/−),,
"051116-C05 (protein, Synthetic Immune Receptor (SIR)) MALPVTALLLPLALLLHAARPDIVMTQSPDSLAVSLGERATINCRASKSVSTSGYSFMHWYQQKPGQPPKLLIYLASNLESGVPDRFSGSGSGTDFTLTISSLQAEDVAVYYCQHSREVPWTFGQGTKVEIKRLEDLKNVFPPEVAVFEPSEAEISHTQKATLVCLATGFYPDHVELSWWVNGKEVHSGVSTDPQPLKEQPALNDSRYCLSSRLRVSATFWQNPRNHFRCQVQFYGLSENDEWTQDRAKPVTQIVSAEAWGRADCGFTSESYQQGVLSATILYEILLGKATLYAVLVSALVLMAMVKRKDSRGRAKRSGSGATNFSLLKQAGDVEENPGPTSMDWIWRILFLVGAATGAHSFEQVQLVQSGAEVKKPGASVKVSCKASGYTFTNYGMNWVRQAPGQGLEWMGWINTYTGEPTYADAFKGRFAFSLDTSTSTAYLQINSLRSDDTAVYYCARDYGDYGMDYWGQGTTVTVSSTRIQNPDPAVYQLRDSKSSDKSVCLFTDFDSQTNVSQSKDSDVYITDKTVLDMRSMDFKSNSAVAWSNKSDFACANAFNNSIIPEDTFFPSPESSCDVKLVEKSFETDTNLNFQNLSVIGFRILLLKVAGFNLLMTLRLWSSRAKRSGSGVKQTLNFDLLKLAGDVESNPGPSRGHMTEYKPTVRLATRDDVPRAVRTLAAAFADYPATRHTVDPDRHIERVTELQELFLTRVGLDIGKVWVADDGAAVAVWTTPESVEAGAVFAEIGPRMAELSGSRLAAQQQMEGLLAPHRPKEPAWFLATVGVSPDHQGKGLGSAVVLPGVEAAERAGVPAFLETSAPRNLPFYERLGFTVTADVEVPEGPRTWCMTRKPGA",,,NFAT-GFP ASSAY Positive Cell lines: THP1 (SIR-expressing Jurkat-NFAT-GFP cells cocultured with THP1): THP1 (+/−)
022217-X03 (protein) MALPVTALLLPLALLLHAARPLEGKPIPNPLLGLDSTGSGEDLKNVFPPEVAVFEPSKAEIAHTQKATLVCLATGFYPDHVELSWWVNGKEVHSGVCTDPQPLKEQPALNDSRYCLSSRLRVSATFWQNPRNHFRCQVQFYGLSENDEWTQDRAKPVTQIVSAEAWGRADCGITSASYHQGVLSATILYEILLGKATLYAVLVSALVLMAMVKRKDSRGRAKRSGSGATNFSLLKQAGDVEENPGPTSMALPVTALLLPLALLLHAARPDIQMTQSPSSLSASVGDRVTINCKASQDINSYLSWFQQKPGKAPKTLIYRANRLVDGVPSRFSGSGSGQDYTLTISSLQPEDFATYYCLQYDEFPLTFGGGTKVEIKGGGGSGGGGSGGGGSQVQLVQSGAEVKKPGASVKVSCKASGYTFTNYDINWVRQAPGQGLEWIGWIYPGDGSTKYNEKFKAKATLTADTSTSTAYMELRSLRSDDTAVYYCASGYEDAMDYWGQGTTVTVSSTREQKLISEEDGSGIQNPDPAVYQLRDSKSSDKSVCLFTDFDSQTNVSQSKDSDVYITDKCVLDMRSMDFKSNSAVAWSNKSDFACANAFNNSIIPEDTFFPSSDVPCDVKLVEKSFETDTNLNFQNLSVIGFRILLLKVAGFNLLMTLRLWSSRAKRSGSGVKQTLNFDLLKLAGDVESNPGPSRGHMTEYKPTVRLATRDDVPRAVRTLAAAFADYPATRHTVDPDRHIERVTELQELFLTRVGLDIGKVWVADDGAAVAVWTTPESVEAGAVFAEIGPRMAELSGSRLAAQQQMEGLLAPHRPKEPAWFLATVGVSPDHQGKGLGSAVVLPGVEAAERAGVPAFLETSAPRNLPFYERLGFTVTADVEVPEGPRTWCMTRKPGA,,U266 (+/−),
